# Measurements published in the Human Domainome abundance scans (Beltran et al. 2025).
# ± gives the uncertainty stated by the source.
# B1: DnaJ homolog subfamily C member 2, residues 451 to 503; numbered along this chain, Q99543 (parent)
# chain: SKNWSEDDLQLLIKAVNLFPAGTNSRWEVIANYMNIHSSSGVKRTAKDVIGKA
# Variants of: B1
# Assay: abundance fitness (aPCA) (normalised: wild type 0, dead -1); higher = more abundant; growth selection in yeast, the domain comes from the species named
# Details: Homo sapiens
row,Variant,abundance fitness
1,N24Q,-0.112 ± 0.11
2,N24E,0.07 ± 0.079
3,N24V,-0.068 ± 0.061
4,N24W,-0.279 ± 0.072
5,N24D,0.008 ± 0.088
6,G51T,-0.065 ± 0.079
7,G51D,0.063 ± 0.062
8,G51E,0.016 ± 0.084
9,G51A,-0.019 ± 0.065
10,G51C,-0.142 ± 0.091
11,G51Y,-0.099 ± 0.12
12,V42A,-0.685 ± 0.24
13,Y33L,-0.914 ± 0.077
14,Y33P,-0.938 ± 0.11
15,Y33Q,-0.746 ± 0.11
16,Y33H,-0.414 ± 0.12
17,Y33C,-0.996 ± 0.12
18,K43H,-0.173 ± 0.099
19,K43T,-0.006 ± 0.084
20,K43M,-0.146 ± 0.095
21,K43P,-0.209 ± 0.086
22,A46H,-0.309 ± 0.09
23,A46T,-0.114 ± 0.086
24,A46N,-0.567 ± 0.1

row,Variant,abundance fitness
1,A46Y,-0.305 ± 0.082
2,S25T,-0.144 ± 0.092
3,S25D,0.062 ± 0.083
4,S25Y,-0.281 ± 0.092
5,S38R,-0.435 ± 0.062
6,S38L,-0.86 ± 0.063
7,N35I,-0.86 ± 0.13
8,T23L,-0.221 ± 0.075
9,T23M,-0.221 ± 0.17
10,T23H,-0.147 ± 0.15
11,T23R,-0.649 ± 0.1
12,T23V,-0.302 ± 0.093
13,R26T,-0.52 ± 0.43
14,L9G,-0.143 ± 0.056
15,L9H,-0.071 ± 0.11
16,N3V,-0.227 ± 0.066
17,N3T,-0.114 ± 0.063
18,D48E,0.042 ± 0.084
19,D48T,-0.563 ± 0.1
20,N17Y,-0.194 ± 0.11
21,N17S,-0.061 ± 0.066
22,N17F,-0.353 ± 0.13
23,N17P,-0.875 ± 0.11
24,L18V,-0.108 ± 0.074

row,Variant,abundance fitness
1,L18I,-0.073 ± 0.14
2,A21Y,-0.265 ± 0.1
3,A21V,-0.142 ± 0.065
4,A21D,-0.039 ± 0.091
5,A21M,0.005 ± 0.074
6,A21Q,0.049 ± 0.088
7,L11R,-0.536 ± 0.058
8,L11I,0.007 ± 0.1
9,S39D,0.03 ± 0.093
10,S39H,0.05 ± 0.094
11,S39Q,-0.102 ± 0.082
12,S39P,0.001 ± 0.08
13,S1H,-0.348 ± 0.41
14,K52S,-0.252 ± 0.073
15,K52Q,-0.012 ± 0.12
16,K52L,-0.385 ± 0.073
17,I13M,0.021 ± 0.069
18,I13N,-0.097 ± 0.11
19,I13W,0.058 ± 0.064
20,I13D,0.142 ± 0.078
21,A53P,-0.775 ± 0.46
22,A53L,-0.634 ± 0.24
23,S40T,-0.166 ± 0.076
24,S40D,-0.282 ± 0.085

row,Variant,abundance fitness
1,S40N,-0.16 ± 0.1
2,S40W,-0.646 ± 0.08
3,S40L,-0.306 ± 0.066
4,S40Q,-0.158 ± 0.072
5,K47A,0.054 ± 0.079
6,K47M,-0.111 ± 0.1
7,W4E,-0.825 ± 0.12
8,W4L,-0.229 ± 0.063
9,E28S,-0.013 ± 0.072
10,E28G,-0.397 ± 0.063
11,E28W,-0.592 ± 0.077
12,E28V,-0.259 ± 0.074
13,E28Q,0.009 ± 0.092
14,E28C,-0.49 ± 0.13
15,E6P,0.107 ± 0.33
16,E6G,-0.155 ± 0.17
17,E6R,-0.543 ± 0.16
18,E6M,-0.366 ± 0.16
19,E6H,-0.615 ± 0.31
20,E6D,-0.154 ± 0.16
21,E6Q,-0.055 ± 0.15
22,I50C,-0.228 ± 0.11
23,I50W,-0.085 ± 0.078
24,I50G,-0.113 ± 0.07

row,Variant,abundance fitness
1,Q10K,-0.107 ± 0.075
2,Q10D,-0.217 ± 0.075
3,Q10I,-0.212 ± 0.082
4,Q10E,-0.054 ± 0.072
5,Q10P,-0.802 ± 0.078
6,D7W,-0.437 ± 0.066
7,D7N,-0.114 ± 0.063
8,D7C,-0.889 ± 0.16
9,D7F,-0.308 ± 0.096
10,D7Y,-0.369 ± 0.094
11,P20N,-0.292 ± 0.1
12,P20H,-0.228 ± 0.089
13,P20S,-0.411 ± 0.059
14,V29M,0.078 ± 0.071
15,V29F,-0.32 ± 0.1
16,V29K,-0.113 ± 0.089
17,V29E,-0.103 ± 0.079
18,V29C,-0.071 ± 0.073
19,V29Y,-0.166 ± 0.091
20,F19T,-0.456 ± 0.083
21,F19R,-0.91 ± 0.094
22,G41I,-0.119 ± 0.19
23,G41Y,-0.25 ± 0.1
24,G41N,-0.143 ± 0.1

row,Variant,abundance fitness
1,G41F,0.064 ± 0.13
2,K14E,-0.096 ± 0.066
3,K14M,-0.226 ± 0.084
4,K14G,-0.243 ± 0.055
5,K14P,-0.971 ± 0.099
6,D8P,-1.06 ± 0.095
7,D8M,-0.844 ± 0.12
8,N32G,-0.2 ± 0.054
9,N32K,-0.083 ± 0.08
10,L12C,-0.667 ± 0.082
11,L12E,-0.952 ± 0.092
12,L12N,-0.875 ± 0.13
13,L12I,-0.456 ± 0.096
14,L12D,-0.97 ± 0.11
15,L12K,-0.97 ± 0.098
16,L12R,-0.796 ± 0.058
17,M34Y,-0.722 ± 0.094
18,M34G,-0.977 ± 0.062
19,M34P,-0.553 ± 0.09
20,A31D,-0.831 ± 0.11
21,A31M,-0.66 ± 0.11
22,A31S,-0.179 ± 0.061
23,A31F,-1.01 ± 0.13
24,A15L,-0.61 ± 0.071

row,Variant,abundance fitness
1,A15D,-0.777 ± 0.12
2,A15F,-0.847 ± 0.12
3,A15P,-0.724 ± 0.1
4,A15C,-0.279 ± 0.1
5,A15Q,-1.03 ± 0.12
6,A15H,-0.754 ± 0.2
7,V16E,-0.042 ± 0.083
8,V16M,0.065 ± 0.071
9,H37Y,-0.044 ± 0.081
10,I36H,-0.135 ± 0.12
11,I36F,-0.116 ± 0.086
12,K2Q,-0.375 ± 0.12
13,K2S,-0.059 ± 0.079
14,W27D,-0.419 ± 0.095
15,W27R,-0.791 ± 0.061
16,V49E,-0.897 ± 0.11
17,G22E,0.011 ± 0.067
18,G22Q,-0.293 ± 0.079
19,G22Y,-0.267 ± 0.085
20,G22T,-0.065 ± 0.075
21,I30N,-0.999 ± 0.24
22,I30A,-0.651 ± 0.062
23,I30D,-0.729 ± 0.12
